The assay concerns the target T1, extracellular domain of human DCC (M1-N1097) with a C-terminal Fc tag (human, UniProt P43146 26-1097).
T1 construct: signal peptide in the construct; Deleted in Colorectal Cancer (DCC), human, extracellular domain, amino acids 1-1097; On the array it was loaded on protein-A microbeads 1:1 with Cy5-labeled human IgG; in SPR it was amine-coupled to the chip; also called DCC-Fc; source: CHO cells, transient transfection, purified (protein A-Sepharose, gel filtration); not shown: Fc (human IgG), C-terminal, kept
Briefly: peptide or protein array; DCC-Fc mixed 1:1 with Cy5-labeled hIgG on multivalent protein-A microbeads, incubated with extracellular protein microarrays (Library 1: 1,334 samples; Library 2: 624 samples) on epoxysilane slides; washed with PBS-T; Cy5 fluorescence; two replicate screens. To be noted: both partners purified.

T1 sequence (P43146 26-1097): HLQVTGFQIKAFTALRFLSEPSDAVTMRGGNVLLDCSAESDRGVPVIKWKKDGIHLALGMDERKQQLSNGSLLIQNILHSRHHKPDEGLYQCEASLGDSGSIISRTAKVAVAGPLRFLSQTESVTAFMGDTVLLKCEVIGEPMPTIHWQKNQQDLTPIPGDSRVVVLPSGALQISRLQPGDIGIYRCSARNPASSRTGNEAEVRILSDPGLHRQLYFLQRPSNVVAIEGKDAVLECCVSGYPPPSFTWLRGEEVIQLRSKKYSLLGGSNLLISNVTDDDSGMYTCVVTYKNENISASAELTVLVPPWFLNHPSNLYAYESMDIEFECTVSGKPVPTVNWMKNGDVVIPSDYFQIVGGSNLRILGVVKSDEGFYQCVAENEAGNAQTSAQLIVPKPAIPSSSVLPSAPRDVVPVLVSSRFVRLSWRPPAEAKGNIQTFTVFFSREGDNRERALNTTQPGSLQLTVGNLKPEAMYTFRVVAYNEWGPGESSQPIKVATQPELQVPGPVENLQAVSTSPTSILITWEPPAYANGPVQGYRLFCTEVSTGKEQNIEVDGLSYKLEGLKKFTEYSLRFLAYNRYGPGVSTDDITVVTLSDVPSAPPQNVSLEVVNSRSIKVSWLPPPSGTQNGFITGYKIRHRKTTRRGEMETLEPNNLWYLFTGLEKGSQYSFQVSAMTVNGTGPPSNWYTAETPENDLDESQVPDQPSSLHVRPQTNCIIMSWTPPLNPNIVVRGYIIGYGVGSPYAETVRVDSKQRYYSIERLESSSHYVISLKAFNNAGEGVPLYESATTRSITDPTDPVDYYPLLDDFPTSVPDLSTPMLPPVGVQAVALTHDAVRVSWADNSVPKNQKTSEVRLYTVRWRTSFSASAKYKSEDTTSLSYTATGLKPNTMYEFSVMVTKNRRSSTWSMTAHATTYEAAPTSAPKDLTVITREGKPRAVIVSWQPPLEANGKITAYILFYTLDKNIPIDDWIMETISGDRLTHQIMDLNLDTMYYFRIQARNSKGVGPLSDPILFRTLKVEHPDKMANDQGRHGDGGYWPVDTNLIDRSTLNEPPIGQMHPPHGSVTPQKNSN

B1: full length CBLN4 C-terminal His (ligand, human, UniProt Q9NTU7 28-201, looked up)
chain: QNDTEPIVLEGKCLVVCDSNPATDSKGSSSSPLGISVRAANSKVAFSAVRSTNHEPSEMSNKTRIIYFDQILVNVGNFFTLESVFVAPRKGIYSFSFHVIKVYQSQTIQVNLMLNGKPVISAFAGDKDVTREAATNGVLLYLDKEDKVYLKLEKGNLVGGWQYSTFSGFLVFPL
notes: Cerebellin 4 (CBLN4), full length; also called CBLN4-His
Regarding B1, the binding result was “binds”.

The values above are taken from article PMC3882260, “Defining the Ligand Specificity of the Deleted in Colorectal Cancer (DCC) Receptor” (PLoS ONE, 2014).
